Test results published in article PMC13345634, “Dynamic assembly of malate dehydrogenase–citrate synthase multienzyme complex in the mitochondria” (eLife, 2026).

T1: recombinant CIT1 (without the mitochondrial targeting signal, C-terminal 6x His tag) (S. cerevisiae, UniProt P00890 38-479)
T1 construct: By the primers and the NdeI/XhoI sites of pET21b the chain should begin with an added Met and carry LE before the His6; also called recombinant yeast CIT1; pET-cit1; source: E. coli BL21 (DE3), pET21b, purified (Ni-NTA His SpinTrap columns)
T1 sequence (looked up): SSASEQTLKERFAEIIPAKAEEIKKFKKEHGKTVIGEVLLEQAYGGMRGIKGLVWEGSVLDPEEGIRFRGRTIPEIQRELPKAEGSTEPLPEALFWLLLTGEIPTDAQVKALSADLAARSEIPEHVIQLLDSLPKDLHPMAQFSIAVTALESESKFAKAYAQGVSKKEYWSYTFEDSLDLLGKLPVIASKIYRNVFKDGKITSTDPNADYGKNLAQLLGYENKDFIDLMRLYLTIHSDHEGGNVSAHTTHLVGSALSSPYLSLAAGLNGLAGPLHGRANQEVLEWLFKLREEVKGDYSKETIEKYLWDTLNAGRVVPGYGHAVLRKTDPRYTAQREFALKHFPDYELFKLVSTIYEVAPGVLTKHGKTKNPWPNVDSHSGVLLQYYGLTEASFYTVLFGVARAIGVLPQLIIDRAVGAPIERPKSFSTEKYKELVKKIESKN

T2: recombinant MDH1 (without the mitochondrial targeting signal, C-terminal 6x His tag), fluorescently labeled (S. cerevisiae, UniProt P17505 18-334, fluorescent label (Protein Labeling Kit RED-NHS 2nd Generation))
T2 chain: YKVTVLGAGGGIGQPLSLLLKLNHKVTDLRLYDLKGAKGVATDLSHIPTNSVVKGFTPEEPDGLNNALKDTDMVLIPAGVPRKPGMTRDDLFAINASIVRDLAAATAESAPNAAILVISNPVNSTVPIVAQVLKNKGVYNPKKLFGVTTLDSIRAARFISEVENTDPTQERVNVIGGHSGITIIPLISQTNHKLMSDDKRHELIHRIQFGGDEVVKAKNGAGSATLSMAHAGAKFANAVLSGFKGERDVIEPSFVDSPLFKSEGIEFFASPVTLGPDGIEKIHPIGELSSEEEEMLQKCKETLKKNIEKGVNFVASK


How the values were obtained:
[1] = molecular target: T1, recombinant CIT1 (without the …); experiment: MST; fluorescently labeled MDH1 as the target, CIT1 as the ligand (two-fold serial dilution of 80 µM, 16 concentrations); Monolith NT.115, room temperature; 50 mM Tris, 150 mM NaCl, 10 mM MgCl2, 5 mM DTT, 0.05% Tween-20; pH 6.4; details: both partners purified
[2] = molecular target: T1, recombinant CIT1 (without the …); experiment: MST; fluorescently labeled MDH1 as the target, CIT1 as the ligand (two-fold serial dilution of 80 µM, 16 concentrations); Monolith NT.115, room temperature; 50 mM Tris, 150 mM NaCl, 10 mM MgCl2, 5 mM DTT, 0.05% Tween-20; pH 6.0; details: both partners purified
[3] = molecular target: T1, recombinant CIT1 (without the …); experiment: MST; fluorescently labeled MDH1 as the target, CIT1 as the ligand (two-fold serial dilution of 80 µM, 16 concentrations); Monolith NT.115, room temperature; 50 mM Tris, 150 mM NaCl, 10 mM MgCl2, 5 mM DTT, 0.05% Tween-20; pH 7.2; details: both partners purified
[4] = molecular target: T2, recombinant MDH1 (without the …); experiment: MST; pH 6.8
[5] = molecular target: T2, recombinant MDH1 (without the …); experiment: MST; 10 mM fumarate
[6] = molecular target: T2, recombinant MDH1 (without the …); experiment: MST; 10 mM malate
[7] = molecular target: T2, recombinant MDH1 (without the …); experiment: MST; control (no metabolite)

| Binder | Kd [1] [nM] | Kd [2] [nM] | Kd [3] [nM] | Kd [4] [nM] | Kd [5] [nM] | Kd [6] [nM] | Kd [7] [nM] |
| --- | --- | --- | --- | --- | --- | --- | --- |
| recombinant MDH1 (without the mitochondrial targeting signal, C-terminal 6x His tag), fluorescently labeled (enzyme, S. cerevisiae, UniProt P17505 18-334, looked up, fluorescent label (Protein Labeling Kit RED-NHS 2nd Generation), By the primers and the NdeI/XhoI sites of pET21b the chain should begin with an added Met and carry LE before the His6; also called recombinant yeast MDH1; labeled MDH1; source: E. coli BL21 (DE3), pET21b, purified (Ni-NTA His SpinTrap columns)) YKVTVLGAGGGIGQPLSLLLKLNHKVTDLRLYDLKGAKGVATDLSHIPTNSVVKGFTPEEPDGLNNALKDTDMVLIPAGVPRKPGMTRDDLFAINASIVRDLAAATAESAPNAAILVISNPVNSTVPIVAQVLKNKGVYNPKKLFGVTTLDSIRAARFISEVENTDPTQERVNVIGGHSGITIIPLISQTNHKLMSDDKRHELIHRIQFGGDEVVKAKNGAGSATLSMAHAGAKFANAVLSGFKGERDVIEPSFVDSPLFKSEGIEFFASPVTLGPDGIEKIHPIGELSSEEEEMLQKCKETLKKNIEKGVNFVASK | 223 | 33 | 3480 | – | – | – | – |
| recombinant CIT1 (without the mitochondrial targeting signal, C-terminal 6x His tag) (enzyme) SSASEQTLKERFAEIIPAKAEEIKKFKKEHGKTVIGEVLLEQAYGGMRGIKGLVWEGSVLDPEEGIRFRGRTIPEIQRELPKAEGSTEPLPEALFWLLLTGEIPTDAQVKALSADLAARSEIPEHVIQLLDSLPKDLHPMAQFSIAVTALESESKFAKAYAQGVSKKEYWSYTFEDSLDLLGKLPVIASKIYRNVFKDGKITSTDPNADYGKNLAQLLGYENKDFIDLMRLYLTIHSDHEGGNVSAHTTHLVGSALSSPYLSLAAGLNGLAGPLHGRANQEVLEWLFKLREEVKGDYSKETIEKYLWDTLNAGRVVPGYGHAVLRKTDPRYTAQREFALKHFPDYELFKLVSTIYEVAPGVLTKHGKTKNPWPNVDSHSGVLLQYYGLTEASFYTVLFGVARAIGVLPQLIIDRAVGAPIERPKSFSTEKYKELVKKIESKN | – | – | – | 2720 | 288 | 367 | 6070 |
